Consider 9 sequences from the supplement of paper PMC11246515.

± gives the standard deviation of the averaged measurements. A value given as a limit tells only on which side of the number the result lay.

The nature of this data set: total protein half-life in vivo (active degradation + dilution); higher = more stable protein.
[1] abbreviates: E. coli NCM3722 delta-clpP delta-lon delta-hslV, growth: N-lim chemostat, doubling time 6 h.
Where [2] appears, read: E. coli NCM3722 delta-clpP, growth: N-lim chemostat, doubling time 6 h.
[3] abbreviates: E. coli NCM3722 delta-hslV, growth: N-lim chemostat, doubling time 6 h.
Where [4] appears, read: E. coli NCM3722 delta-lon, growth: N-lim chemostat, doubling time 6 h.
[5] abbreviates: wild type E. coli NCM3722, growth: N-lim chemostat, doubling time 6 h.
[6] abbreviates: wild type E. coli NCM3722, growth: N-lim chemostat, doubling time 12 h.
[7] abbreviates: wild type E. coli NCM3722, growth: P-lim chemostat, doubling time 6 h.
The mark [8] stands for this setting: wild type E. coli NCM3722, growth: P-lim chemostat, doubling time 12 h.
The mark [9] stands for this setting: E. coli NCM3722 delta-smpB, growth: N-lim chemostat, doubling time 6 h.
The mark [10] stands for this setting: wild type E. coli NCM3722, growth: C-lim chemostat, doubling time 3 h.
[11] abbreviates: wild type E. coli NCM3722, growth: C-lim chemostat, doubling time 6 h.
Setting [12] is: wild type E. coli NCM3722, growth: C-lim chemostat, doubling time 12 h.

On to “MKTFPLQSLTIIEAQQKQFALVDSICRHFPGSEFLTGGDLGLTPGLNQPRVTQRVEQVLADAFHAQAAALVQGAGTGAIRAGLAALLKPGQRLLVHDAPVYPTTRVIIEQMGLTLITVDFNDLSALKQVVDEQQPDAALVQHTRQQPQDSYVLADVLATLRAAGVPALTDDNYAVMKVARIGCECGANVSTFSCFKLFGPEGVGAVVGDADVINRIRATLYSGGSQIQGAQALEVLRGLVFAPVMHAVQAGVSERLLALLNGGAVPEVKSAVIANAQSKVLIVEFHQPIAARVLEEAQKRGALPYPVGAESKYEIPPLFYRLSGTFRQANPQSEHCAIRINPNRSGEETVLRILRESIASI”, for which the “total protein half-life in vivo” value under setting [1] came to 5.7 ± 0.96 h; the “total protein half-life in vivo” value under setting [2] amounted to 5.48 h; the “total protein half-life in vivo” value under setting [3] was determined as 4.47 h; the “total protein half-life in vivo” value under setting [4] stood at 4.71 h; the “total protein half-life in vivo” value under setting [5] turned out to be 4.59 h; the “total protein half-life in vivo” value under setting [6] is 8.25 h. In addition, the “total protein half-life in vivo” value is, setting by setting: under setting [7], 5.35 h; under setting [8], 12.4 h.

Regarding “MTDKTSLSYKDAGVDIDAGNALVGRIKGVVKKTRRPEVMGGLGGFGALCALPQKYREPVLVSGTDGVGTKLRLAMDLKRHDTIGIDLVAMCVNDLVVQGAEPLFFLDYYATGKLDVDTASAVISGIAEGCLQSGCSLVGGETAEMPGMYHGEDYDVAGFCVGVVEKSEIIDGSKVSDGDVLIALGSSGPHSNGYSLVRKILEVSGCDPQTTELDGKPLADHLLAPTRIYVKSVLELIEKVDVHAIAHLTGGGFWENIPRVLPDNTQAVIDESSWQWPEVFNWLQTAGNVEHHEMYRTFNCGVGMIIALPAPEVDKALALLNANGENAWKIGIIKASDSEQRVVIE”, the “total protein half-life in vivo” value reads like this: under setting [1], 4.99 ± 0.091 h; under setting [2], 4.62 ± 1 h; under setting [3], 4.47 ± 0.064 h; under setting [4], 5.23 ± 0.1 h; under setting [9], 4.258 ± 0.021 h; under setting [10], 2.94 ± 0.24 h. Further, the “total protein half-life in vivo” value is, setting by setting: under setting [11], 5.66 ± 0.063 h; under setting [12], 11.1 ± 0.42 h; under setting [5], 4.53 ± 0.17 h; under setting [6], 7.47 ± 0.71 h; under setting [7], 4.7 ± 0.29 h; under setting [8], 9.07 ± 2 h.

Take “MKDVVIVGALRTPIGCFRGALAGHSAVELGSLVVKALIERTGVPAYAVDEVILGQVLTAGAGQNPARQSAIKGGLPNSVSAITINDVCGSGLKALHLATQAIQCGEADIVIAGGQENMSRAPHVLTDSRTGAQLGNSQLVDSLVHDGLWDAFNDYHIGVTAENLAREYGISRQLQDAYALSSQQKARAAIDAGRFKDEIVPVMTQSNGQTLVVDTDEQPRTDASAEGLARLNPSFDSLGSVTAGNASSINDGAAAVMMMSEAKARALNLPVLARIRAFASVGVDPALMGIAPVYATRRCLERVGWQLAEVDLIEANEAFAAQALSVGKMLEWDERRVNVNGGAIALGHPIGASGCRILVSLVHEMVKRNARKGLATLCIGGGQGVALTIERDE”: the “total protein half-life in vivo” value by setting is: under setting [1], 5.29 ± 0.14 h; under setting [10], 1.35 ± 0.2 h; under setting [11], 2.66 ± 0.38 h; under setting [12], 3.57 ± 0.4 h; under setting [7], 0.858 h; under setting [8], 2 ± 0.37 h.

On to “MALLNIFDIAGSALTAQSQRLNVAASNLANADSVTGPDGQPYRAKQVVFQVNAAPGAATGGVKVADVIESQAPDKLVYEPGNPLADAKGYVKMPNVDVVGEMVNTMSASRSYQANVEVLNTVKSMMLKTLTLGQ [P0ABX2]”, for which the “total protein half-life in vivo” value runs as follows: under setting [2], > 8 h; under setting [9], > 8 h; under setting [10], 0.544 ± 0.33 h; under setting [11], 0.417 h; under setting [12], 1.79 ± 0.53 h; under setting [5], 3.6 h.

For “MSSTLREASKDTLQAKDKTYHYYSLPLAAKSLGDITRLPKSLKVLLENLLRWQDGNSVTEEDIHALAGWLKNAHADREIAYRPARVLMQDFTGVPAVVDLAAMREAVKRLGGDTAKVNPLSPVDLVIDHSVTVDRFGDDEAFEENVRLEMERNHERYVFLKWGKQAFSRFSVVPPGTGICHQVNLEYLGKAVWSELQDGEWIAYPDTLVGTDSHTTMINGLGVLGWGVGGIEAEAAMLGQPVSMLIPDVVGFKLTGKLREGITATDLVLTVTQMLRKHGVVGKFVEFYGDGLDSLPLADRATIANMSPEYGATCGFFPIDAVTLDYMRLSGRSEDQVELVEKYAKAQGMWRNPGDEPIFTSTLELDMNDVEASLAGPKRPQDRVALPDVPKAFAASNELEVNATHKDRQPVDYVMNGHQYQLPDGAVVIAAITSCTNTSNPSVLMAAGLLAKKAVTLGLKRQPWVKASLAPGSKVVSDYLAKAKLTPYLDELGFNLVGYGCTTCIGNSGPLPDPIETAIKKSDLTVGAVLSGNRNFEGRIHPLVKTNWLASPPLVVAYALAGNMNINLASEPIGHDRKGDPVYLKDIWPSAQEIARAVEQVSTEMFRKEYAEVFEGTAEWKGINVTRSDTYGWQEDSTYIRLSPFFDEMQATPAPVEDIHGARILAMLGDSVTTDHISPAGSIKPDSPAGRYLQGRGVERKDFNSYGSRRGNHEVMMRGTFANIRIRNEMVPGVEGGMTRHLPDSDVVSIYDAAMRYKQEQTPLAVIAGKEYGSGSSRDWAAKGPRLLGIRVVIAESFERIHRSNLIGMGILPLEFPQGVTRKTLGLTGEEKIDIGDLQNLQPGATVPVTLTRADGSQEVVPCRCRIDTATELTYYQNDGILHYVIRNMLK”, the “total protein half-life in vivo” value runs as follows: under setting [1], 5.26 ± 0.24 h; under setting [2], 4.44 ± 0.1 h; under setting [3], 4.73 ± 0.14 h; under setting [4], 4.71 ± 0.15 h; under setting [9], 4.362 ± 0.015 h; under setting [10], 3.14 ± 0.26 h. Moreover, the “total protein half-life in vivo” value under setting [11] worked out at 5.47 ± 0.13 h; the “total protein half-life in vivo” value under setting [12] came out at 9.9 ± 0.64 h; the “total protein half-life in vivo” value under setting [5] worked out at 4.65 ± 0.17 h; the “total protein half-life in vivo” value under setting [6] turned out to be 7.39 ± 0.19 h; the “total protein half-life in vivo” value under setting [7] came out at 5.81 ± 0.33 h; the “total protein half-life in vivo” value under setting [8] stood at 11 ± 0.17 h.

Turning to “MPQQNYLDELTPAFTSLLAIKEASRCLLCHDAPCSQACPAQTDPGKFIRSIYFRNFKGAAETIRENNALGAVCARVCPTEKLCQSGCTRAGVDAPIDIGRLQRFVTDFEQQTGMEIYQPGTKTLGKVAIIGAGPAGLQASVTLTNQGYDVTIYEKEAHPGGWLRNGIPQFRLPQSVLDAEIARIEKMGVTIKCNNEVGNTLTLEQLKAENRAVLVTVGLSSGSGLPLFEHSDVEIAVDFLQRARQAQGDISIPQSALIIGGGDVAMDVASTLKVLGCQAVTCVAREELDEFPASEKEFTSARELGVSIIDGFTPVAVEGNKVTFKHVRLSGELTMAADKIILAVGQHARLDAFAELEPQRNTIKTQNYQTRDPQVFAAGDIVEGDKTVVYAVKTGKEAAEAIHHYLEGACSC”, the “total protein half-life in vivo” value is, setting by setting: under setting [1], > 8 h; under setting [10], 1.14 ± 0.029 h; under setting [11], 1.42 ± 0.22 h; under setting [12], 2.52 ± 1.1 h.

As for “MPHIDIKCFPRELDEQQKAALAADITDVIIRHLNSKDSSISIALQQIQPESWQAIWDAEIAPQMEALIKKPGYSMNA”, the “total protein half-life in vivo” value under setting [7] came to 2.92 h.

Regarding “MKSATSAQRPYQEVGAMIRDLIIKTPYNPGERLPPEREIAEMLDVTRTVVREALIMLEIKGLVEVRRGAGIYVLDNSGSQNTDSPDANVCNDAGPFELLQARQLLESNIAEFAALQATREDIVKMRQALQLEERELASSAPGSSESGDMQFHLAIAEATHNSMLVELFRQSWQWRENNPMWIQLHSHLDDSLYRKEWLGDHKQILAALIKKDARAAKLAMWQHLENVKQRLLEFSNVDDIYFDGYLFDSWPLDKVDA”, the “total protein half-life in vivo” value was 4.94 ± 0.91 h under setting [1]; 4.94 ± 0.29 h under setting [2]; 2.75 ± 0.15 h under setting [3]; 3.04 ± 0.38 h under setting [4]; 2.82 ± 0.23 h under setting [9]; 2.21 ± 0.16 h under setting [10]. Also, the “total protein half-life in vivo” value came to 3.86 ± 0.058 h under setting [11]; 5.88 ± 0.11 h under setting [12]; 2.83 h under setting [5]; 3.494 ± 0.022 h under setting [6]; 3.22 ± 0.098 h under setting [7]; 5.72 ± 0.14 h under setting [8].

Turning to “MKTIGLLGGMSWESTIPYYRLINEGIKQRLGGLHSAQVLLHSVDFHEIEECQRRGEWDKTGDILAEAALGLQRAGAEGIVLCTNTMHKVADAIESRCTLPFLHIADATGRAITGAGMTRVALLGTRYTMEQDFYRGRLTEQFSINCLIPEADERAKINQIIFEELCLGQFTEASRAYCAQVIARLAEQGAQGVIFGCTEIGLLVPEERSVLPVFDTAAIHAEDAVAFMLS”, the “total protein half-life in vivo” value was 4.02 ± 0.18 h under setting [2]; 4.05 ± 0.27 h under setting [3]; 4.84 ± 0.066 h under setting [4]; 3.69 ± 0.16 h under setting [9]; 2.27 ± 0.064 h under setting [10]; 4.43 ± 0.24 h under setting [11]. In addition, the “total protein half-life in vivo” value was determined as 7.096 ± 0.017 h under setting [12]; 3.96 ± 0.22 h under setting [5]; 6.72 ± 0.36 h under setting [6]; 4.25 ± 0.4 h under setting [7]; 8.06 ± 0.15 h under setting [8].
